Measurements: patent US20130078247A1 (Boehringer Ingelheim, published 2013)
Changes are numbered by the printed parent chain. Where “and” joins values, the source holds several entries; their conditions need not be identical. Equal values may be shown once. Read-outs that look alike come from different tables or passages of the source. One block for each binder: values may come before it.

Tests used:
rat DLL4 = target: T1, rat DLL4 (rat, UniProt D3ZHH1 28-530, limits assumed); assay: binding ELISA, coated rat DLL4
T1 construct: also called rDLLA; rDLL4
Protocol: (§1) In order to determine cross-reactivity to mouse DLL4 and rat DLL4, a binding ELISA is performed. […] Wells are blocked with a 1% casein solution. VHHs are applied as dilution series and binding is detected biotinylated anti-VHH 1A4 followed by extravidin-HRP. 1A4 is an anti-VHH VHH (generated in-house by Ablynx NV). As reference binding to human DLL4 is measured.

[1] = target: T2, cynomolgus DLL4 overexpressed on CHO cells (cynomolgus, UniProt Q9NR61 27-685 (human entry)); assay: FACS, CHO-cDLL4 cells
T2 construct: also called CHO-cDLL4; cDLL4
T2 chain: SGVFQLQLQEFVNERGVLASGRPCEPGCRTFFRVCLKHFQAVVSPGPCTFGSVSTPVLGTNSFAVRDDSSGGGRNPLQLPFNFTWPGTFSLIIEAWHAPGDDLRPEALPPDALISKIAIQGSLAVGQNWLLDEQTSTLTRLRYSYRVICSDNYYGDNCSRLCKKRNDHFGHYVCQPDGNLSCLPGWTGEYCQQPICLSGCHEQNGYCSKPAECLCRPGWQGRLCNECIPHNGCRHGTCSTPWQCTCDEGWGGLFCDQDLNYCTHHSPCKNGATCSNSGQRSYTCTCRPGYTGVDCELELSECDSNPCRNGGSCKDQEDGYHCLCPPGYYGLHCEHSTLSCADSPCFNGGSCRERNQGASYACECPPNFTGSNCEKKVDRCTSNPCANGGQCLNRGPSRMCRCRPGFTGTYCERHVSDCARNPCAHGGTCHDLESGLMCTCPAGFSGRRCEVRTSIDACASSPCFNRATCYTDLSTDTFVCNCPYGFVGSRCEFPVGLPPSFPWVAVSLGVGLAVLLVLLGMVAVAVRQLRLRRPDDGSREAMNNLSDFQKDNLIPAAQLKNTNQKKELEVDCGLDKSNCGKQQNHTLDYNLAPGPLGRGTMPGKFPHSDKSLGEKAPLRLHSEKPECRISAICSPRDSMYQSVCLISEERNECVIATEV
Protocol: Additionally, in order to determine cross-reactivity of the bispecific VHHs to murine and cynomolgus DLL4, a FACS binding experiment is performed. Briefly, CHO cells overexpressing mouse and cynomolgus DLL4 are used for a titration binding experiment of the VHHs. After a 30 min incubation on ice, all samples are washed and a 2-step detection using anti-c-myc followed by goat-anti mouse IgG-PE labeled is performed. CHO cells overexpressing human DLL4 are taken as reference. The mean MCF value is determined using a FACS Array and used for calculation of the EC₅₀ value (Table 24; FIG. 19).

recombinant mouse DLL4 = target: T3, recombinant mouse DLL4 (mouse, UniProt Q9JI71 27-532); assay: binding ELISA, coated mDLL4
T3 construct: extracellular domain; also called rmDLL4; mDLL4; not shown: C-terminal His tag
Protocol: as §1

[2] = target: T4, recombinant human Jagged-1 (Alexis) (human, UniProt P78504 34-1067, limits assumed); assay: binding ELISA on coated rhJagged-1
T4 construct: also called hJagged-1; hJAG1
Protocol: Absence of binding to homologous ligands human DLL1 and human Jagged-1 is assessed via solid phase binding assay (ELISA). In brief, human DLL1 (Alexis, San Diego, Calif., USA) and human Jagged-1 (Alexis, San Diego, Calif., USA) are coated overnight at 4° C. at 1 μg/mL in a 96-well MaxiSorp plate (Nunc, Wiesbaden, Germany). Wells are blocked with a casein solution (1% in PBS). VHHs are applied as dilution series and binding is detected using a mouse anti-myc (Roche) and an anti-mouse-AP conjugate (Sigma, St. Louis, Mo., USA).

[3] = target: recombinant human DLL4 extracellular domain, C-terminally His-tagged (R&D Systems) (human, UniProt Q9NR61 25-522, biotinylated in the competition assays (sites not given)); assay: cell-based or functional assay
[4] = target: T5, human DLL4, full length, overexpressed on CHO or HEK293 cells (human, UniProt Q9NR61 27-685); assay: cell-based or functional assay
[5] = target: T6, cynomolgus DLL4, full length, overexpressed on cells (cynomolgus, UniProt Q9NR61 27-685 (human entry)); assay: FACS titration on HEK293-cDLL4 cells
T6 construct: also called CHO-cDLL4; cDLL4
T6 chain: T2 chain
Protocol: (§2) In order to determine the cynomologus cross-reactivity of the VHHs, a FACS binding experiment is performed. Cynomolgus DII4 expressing HEK293 cells (transient or stable transfection) are used for a titration binding experiment of the VHHs. After a 30 minutes incubation on ice, all samples are washed and detection is performed by applying anti-c-myc-Alexa647 (Santa Cruz Biotechnology, Santa Cruz, Calif., USA). Human and mouse DII4 overexpressing HEK293 cells are taken as reference. The mean MCF value is determined on the FACS Array and used for calculation of the EC₅₀ value (see FIG. 9).

[6] = target: T5, human DLL4, full length, overexpressed …; assay: FACS titration on HEK293-hDLL4 cells
Protocol: as §2

recombinant human DLL4 [7] = target: T7, recombinant human DLL4 (human, UniProt Q9NR61 25-522); assay: SPR Biacore T100; rhDLL4 on chip; heterogeneous binding curve, no 1:1 fit
T7 construct: R&D Systems C-terminally His-tagged extracellular domain; also called rhDLL4; hDLL4; not shown: C-terminal His tag

recombinant human DLL4 [8] = target: T7, recombinant human DLL4; assay: cell-based or functional assay
mouse Ang2 [9] = target: T8, mouse Ang2 (mouse, UniProt O35608 19-496, limits assumed); assay: competition ELISA: mAng2 binding to mTie2
T8 construct: also called mAng2
T8 sequence (looked up): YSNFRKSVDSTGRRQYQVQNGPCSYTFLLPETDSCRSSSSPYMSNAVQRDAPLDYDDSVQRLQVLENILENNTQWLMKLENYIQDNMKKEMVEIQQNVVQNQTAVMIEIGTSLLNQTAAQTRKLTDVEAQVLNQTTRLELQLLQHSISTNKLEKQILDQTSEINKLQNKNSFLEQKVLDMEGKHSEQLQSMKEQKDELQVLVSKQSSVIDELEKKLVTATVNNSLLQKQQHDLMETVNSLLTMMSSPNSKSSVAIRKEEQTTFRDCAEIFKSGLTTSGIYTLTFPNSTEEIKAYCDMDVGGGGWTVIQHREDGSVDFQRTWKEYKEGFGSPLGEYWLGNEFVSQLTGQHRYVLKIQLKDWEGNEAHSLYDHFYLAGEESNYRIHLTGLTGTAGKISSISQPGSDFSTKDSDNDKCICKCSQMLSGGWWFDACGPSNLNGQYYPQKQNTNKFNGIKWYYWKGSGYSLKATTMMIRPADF

cynomolgus Ang2 [10] = target: T9, cynomolgus Ang2 (cynomolgus); assay: competition ELISA: cAng2 binding to cTie2
T9 construct: also called cAng2; cyno Ang2

human Ang2 [11] = target: T10, human Ang2 (human, UniProt O15123 19-496, limits assumed); assay: competition ELISA: hAng2 binding to hTie2
T10 construct: also called hAng2; human Angiopoietin2
T10 sequence (looked up): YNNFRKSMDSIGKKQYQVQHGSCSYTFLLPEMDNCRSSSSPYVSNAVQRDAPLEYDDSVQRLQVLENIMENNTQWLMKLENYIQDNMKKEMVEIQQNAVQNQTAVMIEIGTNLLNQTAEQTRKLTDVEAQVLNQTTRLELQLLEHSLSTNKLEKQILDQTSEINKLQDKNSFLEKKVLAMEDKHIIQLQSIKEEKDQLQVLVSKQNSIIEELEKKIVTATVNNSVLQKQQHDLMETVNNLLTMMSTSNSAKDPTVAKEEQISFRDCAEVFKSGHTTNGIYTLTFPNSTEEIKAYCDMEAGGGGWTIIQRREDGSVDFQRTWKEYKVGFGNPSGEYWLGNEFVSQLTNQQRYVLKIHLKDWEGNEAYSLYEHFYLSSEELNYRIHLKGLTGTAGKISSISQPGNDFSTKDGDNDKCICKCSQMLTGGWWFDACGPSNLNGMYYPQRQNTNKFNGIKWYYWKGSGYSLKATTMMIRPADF

human Ang2 [12] = target: T10, human Ang2; assay: competition ELISA: hAng2 binding to hTie2; remark: listed apart in the source
mouse Ang2 [13] = target: T8, mouse Ang2; assay: competition ELISA: mAng2 binding to mTie2; remark: listed apart in the source
cynomolgus Ang2 [14] = target: T9, cynomolgus Ang2; assay: competition ELISA: cAng2 binding to cTie2; remark: listed apart in the source
mouse Ang2 [15] = target: T8, mouse Ang2; assay: competition ELISA: mAng2 binding to mTie2; remark: listed apart in the source
human Ang2 [16] = target: T10, human Ang2; assay: competition ELISA: hAng2 binding to hTie2; remark: listed apart in the source
cynomolgus Ang2 [17] = target: T9, cynomolgus Ang2; assay: competition ELISA: cAng2 binding to cTie2; remark: listed apart in the source

T3 sequence (Q9JI71 27-532): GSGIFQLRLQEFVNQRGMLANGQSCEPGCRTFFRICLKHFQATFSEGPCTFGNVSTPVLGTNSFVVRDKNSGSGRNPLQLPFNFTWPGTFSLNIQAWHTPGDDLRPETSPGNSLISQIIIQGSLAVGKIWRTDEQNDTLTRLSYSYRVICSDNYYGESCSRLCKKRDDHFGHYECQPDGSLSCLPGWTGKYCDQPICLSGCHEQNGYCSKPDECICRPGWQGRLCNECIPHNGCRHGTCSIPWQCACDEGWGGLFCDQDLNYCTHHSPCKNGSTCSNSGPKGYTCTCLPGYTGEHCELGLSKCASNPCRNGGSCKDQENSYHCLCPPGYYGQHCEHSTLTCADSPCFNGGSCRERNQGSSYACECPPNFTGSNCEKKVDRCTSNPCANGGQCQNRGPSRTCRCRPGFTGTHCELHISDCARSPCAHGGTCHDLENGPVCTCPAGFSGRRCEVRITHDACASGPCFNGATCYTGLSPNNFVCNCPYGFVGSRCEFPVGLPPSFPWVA
T1 sequence (D3ZHH1 28-530 limits assumed): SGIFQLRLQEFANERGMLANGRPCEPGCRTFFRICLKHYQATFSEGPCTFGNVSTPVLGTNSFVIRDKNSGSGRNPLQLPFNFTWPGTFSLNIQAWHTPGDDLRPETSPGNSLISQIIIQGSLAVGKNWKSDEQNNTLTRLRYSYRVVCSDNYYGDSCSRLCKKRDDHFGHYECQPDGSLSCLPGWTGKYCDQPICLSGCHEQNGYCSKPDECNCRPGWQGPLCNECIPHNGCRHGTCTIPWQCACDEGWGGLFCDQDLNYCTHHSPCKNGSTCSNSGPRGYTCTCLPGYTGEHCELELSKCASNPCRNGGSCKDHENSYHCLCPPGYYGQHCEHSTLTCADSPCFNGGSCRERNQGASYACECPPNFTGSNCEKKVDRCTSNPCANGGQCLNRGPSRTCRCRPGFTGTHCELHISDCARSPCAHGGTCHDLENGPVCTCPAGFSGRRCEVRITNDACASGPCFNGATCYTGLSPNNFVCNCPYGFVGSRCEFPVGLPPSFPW

B1: DLLBII00018 (VHH)
VHH: DVQLVESGGGLVQPGGSLRLSCAASGRTFSSYAMAWYRQAPGKEREYVAAIRWSGGTAYYADSVKGRFTISRDNAKNTVYLQMNSLRPEDTAVYYCANRAPDTRLAPYEYDHWGQGTLVTVSS
- EC50 (rat DLL4): 2.6 nM
- EC50 [1]: 0.8 nM
- EC50 (recombinant mouse DLL4): 3.3 nM

B5: 00921 (VHH)
VHH: EVQLVESGGGLVQPGGSLRLSCAASGFTFDDYALGWFRQAPGKEREGVSCIRCSGGSTYYADSVKGRFTISSDNSKNTVYLQMNSLRPEDTAVYYCAASIVPRSKLEPYEYDAWGQGTLVTVSS
- IC50 (read off the curve) (mouse Ang2 [9]): ~30 nM
- IC50 (read off the curve) (cynomolgus Ang2 [10]): ~40 nM
- IC50 (read off the curve) (human Ang2 [11]): ~20 nM

B6: 00956 (VHH)
VHH: EVQLVESGGGLVQPGGSLRLSCAASGFTLDDYAIGWFRQAPGKEREGVSAIRSSGGSTYYADSVKGRFTISSDNSKNTVYLQMNSLRPEDTAVYYCAAVPAGRLRFGEQWYPLYEYDAWGQGTLVTVSS
- IC50 (read off the curve) (human Ang2 [12]): ~1 nM
- IC50 (read off the curve) (mouse Ang2 [13]): ~2 nM
- IC50 (read off the curve) (cynomolgus Ang2 [14]): ~2 nM

B7: 00938 (VHH)
VHH: B6 VHH with A24V, F27I, F106Y, L113I
- IC50 (read off the curve) (mouse Ang2 [15]): ~0.06 nM
- IC50 (read off the curve) (human Ang2 [16]): ~0.04 nM
- IC50 (read off the curve) (cynomolgus Ang2 [17]): ~0.1 nM

Other lines, results leading:

- binding result [2]: no binding (tested: 2.5e-7 M)
- concentration giving complete inhibition, HUVEC proliferation assay [3]: 10 µM
- IC50, DLL4/Notch1 reporter assay (luciferase; co-culture with HEK293-hDII4) [4]: 540 nM
B2: DLLBII56A09 (VHH)
VHH: EVQLVESGGGLVQPGGSLRLSCAASGFTFDDYAIGWFRQAPGKEPEGISCISSSGGITYYADSVKGRFTTSRDNAKNTVYLQMNSLKPEDTAVYYCATPGIAACRGIHYTGQGTQVTVSS
notes: also called 56A9; DLLBII56A9; not shown: C-terminal c-myc and His6 tags

- binding result [5]: binds
- EC50 (read off the curve) [6]: ~5 nM
B3: DLLBII56C04 (VHH)
VHH: B2 VHH with A23T, D31V, G56S, N74S, T110W
notes: not shown: C-terminal c-myc and His6 tags

- kon (recombinant human DLL4 [7]): 120000 M⁻¹ s⁻¹ and 150000 M⁻¹ s⁻¹
- IC50 (nM) in the DLL4 proliferation assay (HUVEC, experiment 1) (recombinant human DLL4 [8]): 103 nM
- IC50 (nM) in the DLL4 proliferation assay (HUVEC, experiment 2) (recombinant human DLL4 [8]): 32 nM
B4: DLLBII104G01 (VHH)
VHH: EVQLVESGGGLVQAGGSLRLSCAASGFTFDDYAIGWFRQAPGKEREGVSCISSSDGSTYYADSVKGRFTISSDNAKNTVYLQMNSLKPEDTAVYYCATAWCDSSWYRSFVGYWGQGTQVTVSS
notes: also called 104G1; not shown: C-terminal c-myc tag and His6 tag
